{"source": "paper PMC509409", "about": "“Recognition and Accommodation at the Androgen Receptor Coactivator Binding Interface” (PLoS Biology, 2004)", "binders": {"B1": {"name": "androgen receptor ligand-binding domain (AR LBD), DHT-bound (domain or fragment)", "chain": "GSPGISGGGGGSHIEGYECQPIFLNVLEAIEPGVVCAGHDNNQPDSFAALLSSLNELGERQLVHVVKWAKALPGFRNLHVDDQMAVIQYSWMGLMVFAMGWRSFTNVNSRMLYFAPDLVFNEYRMHKSRMYSQCVRMRHLSQEFGWLQITPQEFLCMKALLLFSIIPVDGLKNQKFFDELRMNYIKELDRIIACKRKNPTSCSRRFYQLTKLLDSVQPIARELHQFTFDLLIKSHMVSVDFPEMMAEIISVQVPKILSGKVKPIYFHTQ"}}, "assay_in_all_cases": "SPR; Biacore 2000; biotinylated peptides (about 250 RU) held on streptavidin cells, AR LBD injected at 10 μM, 5 μM, 1 μM and 300 nM, 10 μl/min; HBS-P (10 mM HEPES pH 7.4, 150 mM NaCl, 0.005% Surfactant P20); SMRT2 peptide cell subtracted as background; two-state conformational change model, Kd calculated from rate constants", "conditions_in_all_cases": "both partners purified", "key": {"[1]": {"biological_target": "T1, biotinylated LxxLL peptide (biotin tag attached through the additional C-terminal SGSGK)", "T1 construct": "also in PDB 1T7F; The SGSGK-biotin form is told for the FRET assay; source: synthetic peptide (Anaspec)"}, "[2]": {"biological_target": "T2, biotinylated FxxLW peptide (biotin tag attached through the additional C-terminal SGSGK)", "T2 construct": "also in PDB 1T79; The SGSGK-biotin form is told for the FRET assay; source: synthetic peptide (Anaspec)"}, "[3]": {"biological_target": "T3, biotinylated FxxLF peptide (biotin tag attached through the additional C-terminal SGSGK)", "T3 construct": "also in PDB 1T7R; The SGSGK-biotin form is told for the FRET assay; source: synthetic peptide (Anaspec)"}}}
{"binder": "B1", "values": [{"measurement": "Kd", "setting": "[1]", "result": 1.8, "unit": "µM"}, {"measurement": "Kd", "setting": "[2]", "result": 0.92, "unit": "µM"}, {"measurement": "Kd", "setting": "[3]", "result": 1.1, "unit": "µM"}]}
